Test results reported in patent US20240384250A1, “FIBROBLAST GROWTH FACTOR 23 MODULATING COMPOUNDS” (THE UAB RESEARCH FOUNDATION, priority 2021, published 2024).
Entries after “also recorded” stand apart in the source; their conditions may differ.

Key:
[1] = target: T1, FGFR1c (Homo sapiens, UniProt P11362); assay: Pull-down of FLAG-sKL with Fc-tagged FGFR on protein A/G beads, absence of FGF23; assay type: binding
T1 construct: Fc-coupled FGFR ectodomains were immobilized on protein A/G beads; purchased R&D Systems 658FR050
T1 sequence (P11362 22-376 limits assumed): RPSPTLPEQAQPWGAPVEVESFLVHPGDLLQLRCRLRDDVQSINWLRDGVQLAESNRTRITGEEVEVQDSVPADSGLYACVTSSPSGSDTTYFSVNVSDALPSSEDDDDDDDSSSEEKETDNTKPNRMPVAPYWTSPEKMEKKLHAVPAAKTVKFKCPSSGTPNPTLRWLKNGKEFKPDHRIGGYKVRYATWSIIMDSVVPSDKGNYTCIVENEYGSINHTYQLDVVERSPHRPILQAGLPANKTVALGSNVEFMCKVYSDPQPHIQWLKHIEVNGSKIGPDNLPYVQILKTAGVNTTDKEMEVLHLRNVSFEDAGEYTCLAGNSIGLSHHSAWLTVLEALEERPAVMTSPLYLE
Experimental: To study the interaction between Fc-tagged FGFR isoforms (Fc-FGFR), FGF isoforms, and sKL, immunoprecipitation studies were conducted. Protein A beads (6501, BioVision) and protein G beads (6511, BioVision) were used at 25 μl of a 50% stock slurry per sample in a total bead volume of 50 μl. Beads were washed 5× in activity buffer (50 mM Tris [pH 7.4], 200 mM NaCl, 0.01% Tween 20). Bead spin-down assays were all performed for 2 minutes at 5000 g. Beads were resuspended in 1 ml of activity buffer in a 1.5-ml snap cap tube. One microgram of Fc-FGFR1 to 4 was incubated with the beads for 1 hour on a bead rotator. Control samples were incubated with 2 μg of anti-FGF antibody instead of Fc-FGFR. Beads were then pelleted at 5000 g for 2 minutes and washed 5× with activity buffer. Beads were resuspended and incubated with different combinations of 500 ng of FGF, 1 μg of sKL, 1.6 United States Pharmacopeia (USP) units of heparin, or phosphate-buffered saline (PBS). Beads were incubated for 1 hour on a tube rotator, and beads were pelleted and washed as before. One hundred microliters of 1× Laemmli sample buffer (1610737, Bio-Rad) with 1.42 M 2-mercaptoethanol was added, and samples were boiled for 5 minutes. Samples were analyzed using SDS-PAGE and Western blotting.
The sample (20 μl) was loaded onto Mini-PROTEAN TGX Precast Gel 4-20% for experiments with <9 samples (4568094, Bio-Rad) or Criterion TGX Precast Gel 4-20% (5678094, Bio-Rad) for experiments with >9 samples. Gels were run in 1× Tris/Glycine/SDS buffer (1610732, Bio-Rad) at 150 V and stopped when the sample dye reached the end of the gel. Gels were removed and electrotransferred via a semi-dry cassette (1703940, Bio-Rad) in I× Tris/Glycine buffer (1610734, Bio-Rad) with 20% methanol. Gels were transferred onto polyvinylidene diflouride membranes (IPVH00010, Millipore) at 20 V for 1 hour. Membranes were then blocked in 5% dried milk with 0.5% Tween 20 diluted in Tris-buffered saline (TBST; pH 7.5) for 1 hour and probed with antibodies against specific antigens at 1:1000 in TBST with 5% dried milk. Blots were washed 3× for 5 minutes in TBST and probed with HRP-coupled secondary antibodies against specific species at 1:10,000 in TBST with 5% dried milk. Membranes were imaged on the SRX-101A X-ray film developer (Konica Minolta).

[2] = target: T2, FGF8b binding to FGFR1c (Homo sapiens, UniProt P11362); assay: Plate-based binding of paracrine FGF to Fc-FGFR1c with heparin and/or sKL; details: Fc-FGFR1c preincubated with 400 ng FLAG-sKL
T2 construct: a chimeric protein consisting of the FGFR1 ectodomain and the Fc region of a human IgG; purchased R&D Systems 423-F8/CF; 658FR050
T2 sequence (P11362 22-376 limits assumed): T1 sequence (P11362 22-376 limits assumed)
Experimental: (§1) Proteins were coated on 96-well plates (MaxiSorp; 439454, Thermo Fisher Scientific), and proteins were added to wells in 100 μl of enzyme-linked immunosorbent assay (ELISA) coating buffer (E107, Bethyl Laboratories) with a lid placed overtop and incubated at 4° C. overnight. Plates were washed 5× with 350 μl of assay buffer (50 mM Tris [pH 7.4], 200 mM NaCl, 0.01% Tween 20) on a 50 TS microplate washer (BioTek). Plates were blocked for 1 hour in 200 μl of assay buffer with 0.5% BSA. Plates were washed as before, and proteins were incubated on plates in 100 μl of assay buffer with 0.5% BSA. Proteins or heparin was incubated in orders described in the respective figure legends. Assays using FLAG-tag-based detection were incubated with anti-FLAG coupled to HRP at 1:20,000, and assays using Fc detection were incubated with anti-human Fc coupled to HRP at 1:10,000. Plates were washed as above, and 100 μl of 3,3′,5,5′-tetramethylbenzidine (TMB) substrate (E102, Bethyl Laboratories) was added for 15 to 20 minutes until positive wells developed a dark blue color. Reactions were stopped with ELISA stop solution (E115, Bethyl Laboratories) and analyzed using the Synergy HI plate reader (BioTek) at 450 nm wavelength. […] As a control to remove background absorbance values, wells were coated with an equal amount of BSA to match the amount of protein coated in experimental wells and treated the same as experimental wells. To study the effects of sKL on the binding between paracrine FGFs and FGFRs, plates were run as above except coated with paracrine FGFs. Fc-FGFR1 was preincubated with sKL or vehicle for 60 minutes, and then the combination was added to wells and the assay was run as before.

[3] = target: T3, FGF2 binding to FGFR1c (Homo sapiens, UniProt P11362); assay: as above; details: Fc-FGFR1c preincubated with FLAG-sKL, absence and presence of heparin
T3 construct: a chimeric protein consisting of the FGFR1 ectodomain and the Fc region of a human IgG; purchased R&D Systems 233-FB/CF; 658FR050
T3 sequence (P11362 22-376 limits assumed): T1 sequence (P11362 22-376 limits assumed)
Experimental: as §1

[4] = target: T1, FGFR1c; assay: Plate-based binding assay, FGFR1c coated, FLAG-sKL detected with anti-FLAG HRP; details: for binding of FLAG-sKL to coated FGFR1c: 40 ng FGFR1c coated, 80 ng FLAG-sKL, compared with FGFR4 and FGF23
Experimental: as §1

co-precipitation of FLAG-sKL with FGFR1c [1]: could be co-precipitated with FGFR1c
binding of FGFR1c to FGF8b in the presence of sKL [2]: reduced the binding
binding of FGFR1c to FGF2 in the presence of sKL ([3]; listed as FLAG-sKL): significantly reduced
binding of FLAG-sKL to coated FGFR1c [4]: highest affinity
FGFR1c binding, protein from HEK293 lysates instead of supernatants ([4]; 200 ng FGFR1c coated): smaller increase
B1: sKL: recombinant soluble α-klotho ectodomain, mouse aa 35-982 and human aa 34-981, FLAG- or Strep/His-tagged, purified from HEK293 cells (protein)
chain: EPGDGAQTWARFSRPPAPEAAGLFQGTFPDGFLWAVGSAAYQTEGGWQQHGKGASIWDTFTHHPLAPPGDSRNASLPLGAPSPLQPATGDVASDSYNNVFRDTEALRELGVTHYRFSISWARVLPNGSAGVPNREGLRYYRRLLERLRELGVQPVVTLYHWDLPQRLQDAYGGWANRALADHFRDYAELCFRHFGGQVKYWITIDNPYVVAWHGYATGRLAPGIRGSPRLGYLVAHNLLLAHAKVWHLYNTSFRPTQGGQVSIALSSHWINPRRMTDHSIKECQKSLDFVLGWFAKPVFIDGDYPESMKNNLSSILPDFTESEKKFIKGTADFFALCFGPTLSFQLLDPHMKFRQLESPNLRQLLSWIDLEFNHPQIFIVENGWFVSGTTKRDDAKYMYYLKKFIMETLKAIKLDGVDVIGYTAWSLMDGFEWHRGYSIRRGLFYVDFLSQDKMLLPKSSALFYQKLIEKNGFPPLPENQPLEGTFPCDFAWGVVDNYIQVDTTLSQFTDLNVYLWDVHHSKRLIKVDGVVTKKRKSYCVDFAAIQPQIALLQEMHVTHFRFSLDWALILPLGNQSQVNHTILQYYRCMASELVRVNITPVVALWQPMAPNQGLPRLLARQGAWENPYTALAFAEYARLCFQELGHHVKLWITMNEPYTRNMTYSAGHNLLKAHALAWHVYNEKFRHAQNGKISIALQADWIEPACPFSQKDKEVAERVLEFDIGWLAEPIFGSGDYPWVMRDWLNQRNNFLLPYFTEDEKKLIQGTFDFLALSHYTTILVDSEKEDPIKYNDYLEVQEMTDITWLNSPSQVAVVPWGLRKVLNWLKFKYGDLPMYIISNGIDDGLHAEDDQLRVYYMQNYINEALKAHILDGINLCGYFAYSFNDRTAPRFGLYRYAADQFEPKASMKHYRKIIDSNGFPGPETLERFCPEEFTVCTECSFFHTRKS
modifications: left off: small tags and cut ends
notes: recombinant soluble α-klotho ectodomain, mouse aa 35-982 and human aa 34-981, FLAG- or Strep/His-tagged, purified from HEK293 cells
binding of FGFR1c to FGF2 in the presence of sKL [3]: reduced; also recorded: this effect did not occur in the presence of sKL
binding of FLAG-sKL to coated FGFR1c ([4]; listed as FLAG-sKL): highest affinity; also recorded: bound FGFR1c
